According to patent US11155602B2, “Polypeptides targeting HIV fusion” (priority 2015, dated 2021):
Positions count from the first letter of the chain named.

B1: 179 (protein)
chain: MGHHHHHHGGSVSDVPRDLEVVAATPTSLLISWEYKVHPYRYYRITYGETGGNSPVQEFTVPSVLSTATISGLKPGVDYTITVYAVTYGDDSRPISINYRTEID
modifications: Adnectin
B2: 190 (protein)
chain: B1 chain with D90A, R93A
modifications: Adnectin
B3: 186 (protein)
chain: B1 chain with D90E, R93A
modifications: Adnectin
B4: 191 (protein)
chain: B1 chain with D90T, R93A
modifications: Adnectin
B5: 200 (protein)
chain: B1 chain with G48T, R93A
modifications: Adnectin
B6: 198 (protein)
chain: B1 chain with R93A, N98Q
modifications: Adnectin
B7: 202 (protein)
chain: B1 chain with R93K
modifications: Adnectin
B8: 212 (protein)
chain: B1 chain with Y88H, R93A
modifications: Adnectin
B9: 182 (protein)
chain: B1 chain with D91Q, R93A
modifications: Adnectin
B10: 201 (protein)
chain: B1 chain with D91Q, R93A
modifications: Adnectin
B11: 209 (protein)
chain: B1 chain with R93T
modifications: Adnectin
B12: 196 (protein)
chain: B1 chain with D91V, R93A
modifications: Adnectin
B13: 189 (protein)
chain: B1 chain with D90K, R93A
modifications: Adnectin
B14: 194 (protein)
chain: B1 chain with D91P, R93A
modifications: Adnectin
B15: 208 (protein)
chain: B1 chain with R93T
modifications: Adnectin
B16: 199 (protein)
chain: B1 chain with R93Q
modifications: Adnectin
B17: 187 (protein)
chain: B1 chain with T60K, R93A
modifications: Adnectin
B18: 203 (protein)
chain: B1 chain with R93G
modifications: Adnectin
B19: 205 (protein)
chain: B1 chain with K36D, R93A
modifications: Adnectin
B20: 211 (protein)
chain: B1 chain with Y88R, R93A
modifications: Adnectin
B21: 210 (protein)
chain: B1 chain with R93S
modifications: Adnectin
B22: 188 (protein)
chain: B1 chain with D91L, R93A
modifications: Adnectin
B23: 207 (protein)
chain: B1 chain with G48W, R93A
modifications: Adnectin
B24: 181 (protein)
chain: B1 chain with D91H, R93A
modifications: Adnectin
B25: 206 (protein)
chain: B1 chain with R93K
modifications: Adnectin
B26: 183 (protein)
chain: B1 chain with D90I, R93A
modifications: Adnectin
B27: 184 (protein)
chain: B1 chain with D91V, R93A
modifications: Adnectin
B28: 192 (protein)
chain: B1 chain with D90T, R93A
modifications: Adnectin
B29: 195 (protein)
chain: B1 chain with R93Q
modifications: Adnectin
B30: 197 (protein)
chain: B1 chain with R93G
modifications: Adnectin
B31: 180 (protein)
chain: B1 chain with D90K, R93A
modifications: Adnectin
B32: 193 (protein)
chain: B1 chain with D90K, R93A
modifications: Adnectin
B33: 120 (protein)
chain: MGHHHHHHGGVSDVPRDLEVVAATPTSLLISWEYNVNPYRYYRITYGETGGNSPVQEFTVPSVLSSAQISGLKPGVDYTITVYAVTRGVDSAPISINYRTPGG
modifications: Adnectin
B34: 121 (protein)
chain: B33 chain with S66T, Q68E, R87Y, A92D
modifications: Adnectin
B35: 122 (protein)
chain: B33 chain with E33Q, N35K, N37H, S66T, Q68E
modifications: Adnectin
B36: 123 (protein)
chain: MGVSDVPRDLEVVAATPTSLLISWEYKVHPYRYYRITYGETGGNSPVQEFTVPSVLSTATISGLKPGVDYTITVYAVTRGVDSAPISINYRTEIDKPSQHHHHHH
modifications: Adnectin

These molecules were tested on NL-Rluc virus (assay: Combinectin potency assay: antiviral EC50, NL-Rluc virus in MT-2 cells, luciferase readout). Conditions: Anti-N17 Adnectin, Table 3.
Type: cell-based, HIV-1
Protocol: MT-2 cells, HEK 293T cells and the proviral DNA clone of […] were obtained from the NIH AIDS Research and Reference Reagent Program. MT-2 cells were propagated in RPMI 1640 medium supplemented with 10% heat-inactivated fetal bovine serum (FBS), 10 mM HEPES buffer pH 7.55, and 2 mM L-glutamine. HEK 293T cells were propagated in DMEM media supplemented with 10% heat-inactivated FBS, 10 mM HEPES buffer pH 7.55 and 2 mM L-glutamine. Recombinant NL-Rluc virus, in which a section of the nef gene from the proviral clone of NL4-3 was replaced with the Renilla luciferase gene, was constructed at Bristol-Myers Squibb. The replication-competent virus was harvested 3 days after transfection of HEK 293T cells with the modified pNL-Rluc proviral clone. Transfections were performed using Lipofectamine Plus (Invitrogen, Carlsbad, Calif.), according to manufacturer's instruction. Virus was titered in MT-2 cells using luciferase enzyme activity as a biomarker. The NL-Rluc virus used to infect MT-2 cells a multiplicity of 0.01 for 1 hour before adding to the peptides in 96-well plates. Peptides were serially diluted three-fold and 11 concentrations were plated in triplicate. After 4-5 days of incubation, cells were processed and quantitated for virus growth by the amount of expressed luciferase. Luciferase was quantitated using the Dual Luciferase kit from Promega (Madison, Wis.), with modifications to the manufacturer's protocol. The diluted Passive Lysis solution was pre-mixed with the re-suspended Luciferase Assay Reagent and then re-suspended in STOP & GLO® Substrate (2:1:1 ratio). A total of […] of the mixture was added to each aspirated well on assay plates and luciferase activity was measured immediately on a Wallac TriLux (Perkin-Elmer, Waltham, Mass.). The 50% effective concentration (EC50) was calculated by comparing the amount of luciferase produced in the presence of inhibitory peptide compared to wells where no peptide was added.

Molecule	EC50
B1	> 1000 nM
B2	> 1000 nM
B3	2830 nM
B4	> 1000 nM
B5	> 1000 nM
B6	2830 nM
B7	> 1000 nM
B8	86 nM
B9	> 1000 nM
B10	20 nM
B11	20 nM
B12	86 nM
B13	> 1000 nM
B14	> 1000 nM
B15	> 1000 nM
B16	> 1000 nM
B17	86 nM
B18	86 nM

Molecule	EC50
B19	86 nM
B20	631 nM
B21	143 nM
B22	86 nM
B23	> 1000 nM
B24	631 nM
B25	237 nM
B26	20 nM
B27	20 nM
B28	2830 nM
B29	> 1000 nM
B30	81 nM
B31	> 1000 nM
B32	252 nM
B33	39 nM
B34	57 nM
B35	6 nM
B36	28 nM
